Columns and labels:
Experiment in all cases: cell-based or functional assay
GIP receptor = molecular target: T1, GIP receptor (UniProt P48546)
T1 sequence (looked up): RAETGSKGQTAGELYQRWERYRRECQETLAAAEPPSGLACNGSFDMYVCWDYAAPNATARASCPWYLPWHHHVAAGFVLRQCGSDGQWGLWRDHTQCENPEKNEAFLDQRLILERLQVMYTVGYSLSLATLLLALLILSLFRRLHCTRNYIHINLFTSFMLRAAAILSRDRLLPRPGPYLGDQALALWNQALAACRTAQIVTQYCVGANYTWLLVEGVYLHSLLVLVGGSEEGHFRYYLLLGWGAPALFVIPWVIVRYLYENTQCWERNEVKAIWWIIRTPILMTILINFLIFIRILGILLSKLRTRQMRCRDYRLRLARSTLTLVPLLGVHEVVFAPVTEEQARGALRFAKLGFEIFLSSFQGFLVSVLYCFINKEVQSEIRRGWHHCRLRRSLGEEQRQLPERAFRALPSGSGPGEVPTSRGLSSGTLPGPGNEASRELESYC

glucagon receptor = glucagon receptor (UniProt P47871)
Chain of glucagon receptor (P47871 26-477 limits assumed): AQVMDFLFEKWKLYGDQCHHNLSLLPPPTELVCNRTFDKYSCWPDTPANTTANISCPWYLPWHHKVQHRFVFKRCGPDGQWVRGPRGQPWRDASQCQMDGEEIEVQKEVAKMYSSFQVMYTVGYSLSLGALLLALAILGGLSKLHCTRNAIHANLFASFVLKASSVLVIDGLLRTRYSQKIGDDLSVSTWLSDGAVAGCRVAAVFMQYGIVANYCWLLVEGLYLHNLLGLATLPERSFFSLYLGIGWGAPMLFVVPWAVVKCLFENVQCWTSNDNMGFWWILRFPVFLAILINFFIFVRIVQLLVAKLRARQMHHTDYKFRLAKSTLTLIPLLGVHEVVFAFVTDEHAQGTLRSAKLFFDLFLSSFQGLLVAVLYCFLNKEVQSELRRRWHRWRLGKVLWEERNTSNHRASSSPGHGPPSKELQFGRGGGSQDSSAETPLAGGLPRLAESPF

GLP-1 receptor = GLP-1 receptor (UniProt P43220)
Chain of GLP-1 receptor (P43220 24-463 limits assumed): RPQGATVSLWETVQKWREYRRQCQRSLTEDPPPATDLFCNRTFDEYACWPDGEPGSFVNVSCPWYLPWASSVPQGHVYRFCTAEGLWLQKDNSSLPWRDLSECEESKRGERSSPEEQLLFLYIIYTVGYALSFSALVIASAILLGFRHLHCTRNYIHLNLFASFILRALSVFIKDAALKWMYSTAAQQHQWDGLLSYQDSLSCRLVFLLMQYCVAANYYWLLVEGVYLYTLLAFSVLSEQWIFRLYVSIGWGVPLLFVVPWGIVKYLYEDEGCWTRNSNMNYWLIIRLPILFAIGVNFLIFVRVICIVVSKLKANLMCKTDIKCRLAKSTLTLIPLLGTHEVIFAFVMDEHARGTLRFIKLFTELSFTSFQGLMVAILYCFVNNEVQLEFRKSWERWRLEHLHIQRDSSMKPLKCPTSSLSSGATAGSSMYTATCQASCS

Substance	GIP (EC50) (GIP receptor) [nM]	Glucagon IC50 (glucagon receptor) [nM]	GLP-1 (EC50) (GLP-1 receptor) [nM]	IC50(nM) (cAMP, inhibit 0.2 mM Glucagon) (glucagon receptor)
A1, Aib2, E3 GIP(1-40) (peptide)	3.89			
HAibEGT-PLA6, K10(rErEC16), (E16K20) G(1-29) (peptide)		14.3	0.19	
HAibEGT-PLA6, (E16K20), C24 G(1-29)/A1, Aib2, E3, K40 GIP(1-40)	1.58		11.7	
HAibEGT-PLA6, K10(rErEC16), (E16K20), C24 G(1-29)/A1, Aib2, E3, K40 GIP(1-40)	0.347		0.813	
HAibEGT-PLA6, (E16K20), C24, cex, K40(rErEC16) G(1-40)/A1, Aib2, E3, K40 GIP(1-40)	0.379		0.363	
PLA6, (E16K20), C24 G(6-29)/A1, Aib2, E3, K40 GIP(1-40)	1.29	40.1	367	
[d-Cys5(20kDaPEG), E9]Glucagon(aa5-29)-NH2 (peptide)				14800
HAibEGT-PLA6, (E16K20) G(1-29) (peptide)		12	3.6	
HAibEGT-PLA6, (E16K20), cex, K40(rErEC16) G(1-40) (peptide)		150	0.76	
